Proliferation of the OT1 CD8 T cells (CFSE dilution), coculture with titrated numbers of OVA mRNA LNP-transduced phDC data for one sequence are collected here from patent US20260273045A1.

The target in this experiment is OVA peptide SIINFEKL bound to H-2Kb MHC I on mouse phDC / BMDC (mouse). The experiment is described as follows: cell-based or functional assay.

For “T cell receptor of OVA-specific OT1 CD8 T cells (C57Bl/6-Tg (TcraTcrb)1100Mjb/J mice)”, the Proliferation of the OT1 CD8 T cells (CFSE dilution), coculture with titrated numbers of OVA mRNA LNP-transduced phDC was below 47%.
